Here are results for 12 molecules from US20200339692A1 (JIANGSU HENGRUI MEDICINE, published 2020).

Experiment [1] addresses T1, human PD-L1 (Cat. #10084-H08H, Sino Biological) (human, UniProt Q9NZQ7 19-239).
T1 construct: Bought recombinant protein used in the Biacore test; also called hPDL1; hPD-L1
Kind of experiment: SPR, Biacore X100, 1:1 Langmuir. How it is done:
(§1) According to the method in the manual of human anti-capture kit (Cat. A BR-1008-39, GE), the human anti-capture antibody was covalently coupled to biosensor chip CM5 (Cat. #BR-1000-12, GE) so that a certain amount of human PD-L1 (Cat. #10084-H08H, Sino Biological) monkey PD-L1 (Cat. #90251-C08H, Sino Biological), mouse PD-L1 (Cat. #50010-M08H, Sino Biological) were affinity captured. The affinity of PD-L1 antibody reacting with PD-L1 was measured with Biacore X100, GE instrument.

For experiment [2], the target named is T2, monkey PD-L1 (Cat. #90251-C08H, Sino Biological) (monkey (cyno), UniProt G7PSE7 19-239).
T2 construct: Bought recombinant protein used in the Biacore test; also called Monkey (cyno) PD-L1; Cyno PDL1
T2 sequence (G7PSE7 entry or part of it C08H C08H): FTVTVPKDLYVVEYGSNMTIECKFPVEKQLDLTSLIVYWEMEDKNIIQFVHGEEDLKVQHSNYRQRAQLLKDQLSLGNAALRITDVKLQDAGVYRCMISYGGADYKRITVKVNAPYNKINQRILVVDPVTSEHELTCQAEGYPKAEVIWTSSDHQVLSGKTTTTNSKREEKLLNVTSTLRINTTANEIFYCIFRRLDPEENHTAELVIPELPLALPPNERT
Kind of experiment: SPR, Biacore X100, 1:1 Langmuir. How it is done: as §1

The target of experiment [3] is T1, human PD-L1 (Cat. #10084-H08H, Sino …). Kind of experiment: SPR, Biacore X100, 1:1 Langmuir. How it is done:
as §1
This is another data set of the same source.

In experiment [4] the target is T3, human PD-L1 (ligand blocking test) (human, UniProt Q9NZQ7 19-238, limits assumed). Kind of experiment: blocking of human PD-L1/PD-1 binding, PD-L1 10 ug/ml; competitor PD-1.
T3 sequence (Q9NZQ7 19-238 limits assumed): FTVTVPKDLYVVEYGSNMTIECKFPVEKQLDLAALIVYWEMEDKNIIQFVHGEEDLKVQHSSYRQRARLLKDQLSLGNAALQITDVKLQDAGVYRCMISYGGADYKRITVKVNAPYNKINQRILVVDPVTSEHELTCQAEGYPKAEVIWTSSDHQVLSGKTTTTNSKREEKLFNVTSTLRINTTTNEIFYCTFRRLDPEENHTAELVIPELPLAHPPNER
Experiment [5] deals with T3, human PD-L1 (ligand blocking test). Kind of experiment: blocking of B7-1 binding to human PD-L1, PD-L1 1 ug/ml; competitor B7-1.
For experiment [6], the target named is T4, mouse PD-L1 (Cat. #50010-M08H, Sino Biological) (mouse, UniProt Q9EP73 19-238).
T4 construct: Bought recombinant protein used in the Biacore test
T4 sequence (Q9EP73 19-238 limits assumed, stated change not applied): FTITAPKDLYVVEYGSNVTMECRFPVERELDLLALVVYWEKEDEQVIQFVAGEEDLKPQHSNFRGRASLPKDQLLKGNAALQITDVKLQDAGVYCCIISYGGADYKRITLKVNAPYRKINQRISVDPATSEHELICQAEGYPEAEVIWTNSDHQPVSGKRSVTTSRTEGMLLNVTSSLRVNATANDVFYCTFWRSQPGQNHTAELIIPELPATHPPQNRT
Kind of experiment: SPR, Biacore X100, 1:1 Langmuir. How it is done: as §1

Like-named read-outs stand apart in the source and are kept apart here.

T1 sequence (Q9NZQ7 19-239 limits assumed): as the sequence (G7PSE7 entry or part of it C08H C08H) above, with T33A, S34A, N62S, Q68R, R82Q, L173F, A185T, I192T, L215H counted along it

B1: H21L67 (antibody, human IgG1, kappa, V domains shown)
VH: QVQLVQSGAEVKKPGASVKVSCKASGYTFTDKWMMWVRQAPGQGLEWMGRITPSSGFAMYNEKFKNRVTMTRDTSTSTVYMELSSLRSEDTAVYYCARGGSSYDYFDYWGQGTTVTVSS
VL: DIVLTQSPASLAVSPGQRATITCRASESVSIHGTHLMHWYQQKPGQPPKLLIYVASNVESGVPARFSGSGSGTDFTLTINPVEAEDTANYYCQQSFEDPLTFGQGTKLEIKR
notes: also called 24D5 H21 and 24D5 L67
In the case of B1, in experiment [1], the Kd turned out to be 0.0522 nM, the koff was 0.00012 s⁻¹ and the kon is 2.3e+06 M⁻¹ s⁻¹. In experiment [2], this molecule gave a Kd of 0.0528 nM, an off-rate (koff) of 0.000124 s⁻¹ and a kon of 2.35e+06 M⁻¹ s⁻¹.

B2: H12L61 (antibody, human IgG1, kappa, V domains shown)
VH: QVQLVQSGAEVKKPGASVKVSCKASGYTFTSYWMHWVRQAPGQGLEWMGRITPSSGFAMYNEKFKNRVTMTRDTSTSTVYMELSSLRSEDTAVYYCARGGSSYDYFDYWGQGTTVTVSS
VL: DIVLTQSPASLAVSPGQRATITCRASESVSIHGTHLMHWYQQKPGQPPKLLIYAASNLESGVPARFSGSGSGTDFTLTINPVEAEDTANYYCQQSFEDPLTFGQGTKLEIKR
notes: also called 24D5 H12 and 24D5 L61
Regarding B2, in experiment [3], binding was characterised by a dissociation constant (Kd) of 0.0326 nM, the koff stood at 7.1e-05 s⁻¹ and the kon is 2.18e+06 M⁻¹ s⁻¹.

B3: H21L66 (antibody, human IgG1, kappa, V domains shown)
VH: QVQLVQSGAEVKKPGASVKVSCKASGYTFTDKWMMWVRQAPGQGLEWMGRITPSSGFAMYNEKFKNRVTMTRDTSTSTVYMELSSLRSEDTAVYYCARGGSSYDYFDYWGQGTTVTVSS
VL: DIVLTQSPASLAVSPGQRATITCRASESVSIHGTHLMHWYQQKPGQPPKLLIYVASNVFSGVPARFSGSGSGTDFTLTINPVEAEDTANYYCQQSFEDPLTFGQGTKLEIKR
notes: also called 24D5 H21 and 24D5 L66
In experiment [1], B3 had a Kd of 0.0533 nM, a dissociation rate constant (koff) of 0.000104 s⁻¹ and an on-rate constant (kon) of 1.95e+06 M⁻¹ s⁻¹. In experiment [2], this molecule came in with a Kd of 0.0563 nM, a koff of 0.000122 s⁻¹ and a kon of 2.17e+06 M⁻¹ s⁻¹.

B4: H17L61 (antibody, human IgG1, kappa, V domains shown)
VH: QVQLVQSGAEVKKPGASVKVSCKASGYTFTSYWMHWVRQAPGQGLEWMGRIGPNLGWAMYNEKYKNRVTMTRDTSTSTVYMELSSLGSEDTAVYYCARGGSSYDYFDYWGQGTTVTVSS
VL: DIVLTQSPASLAVSPGQRATITCRASESVSIHGTHLMHWYQQKPGQPPKLLIYAASNLESGVPARFSGSGSGTDFTLTINPVEAEDTANYYCQQSFEDPLTFGQGTKLEIKR
notes: also called 24D5 H17 and 24D5 L61
Turning to B4, in experiment [3], the equilibrium dissociation constant (Kd) amounted to 0.0393 nM, the koff came out at 9.53e-05 s⁻¹ and the kon came to 2.43e+06 M⁻¹ s⁻¹.

B5: H19L61 (antibody, human IgG1, kappa, V domains shown)
VH: QVQLVQSGAEVKKPGASVKVSCKASGYTFTSYWMHWVRQAPGQGLEWMGRISPGGGFTLYNEKFKNRVTMTRDTSTSTVYMELSSLRSEDTAVYYCARGGSSYDYFDYWGQGTTVTVSS
VL: DIVLTQSPASLAVSPGQRATITCRASESVSIHGTHLMHWYQQKPGQPPKLLIYAASNLESGVPARFSGSGSGTDFTLTINPVEAEDTANYYCQQSFEDPLTFGQGTKLEIKR
notes: also called 24D5 H19 and 24D5 L61
For the molecule B5, in experiment [3], the Kd was 0.0327 nM, the koff was 7.65e-05 s⁻¹ and the kon worked out at 2.34e+06 M⁻¹ s⁻¹.

B6: H14L61 (antibody, human IgG1, kappa, V domains shown)
VH: QVQLVQSGAEVKKPGASVKVSCKASGYTFTSYWMHWVRQAPGQGLEWMGRIHPSLGLPLYNEKFKNRVTMTRDTSTSTVYMELSSLRSEDTAVYYCARGGSSYDYFDYWGQGTTVTVSS
VL: DIVLTQSPASLAVSPGQRATITCRASESVSIHGTHLMHWYQQKPGQPPKLLIYAASNLESGVPARFSGSGSGTDFTLTINPVEAEDTANYYCQQSFEDPLTFGQGTKLEIKR
notes: also called 24D5 H14 and 24D5 L61
In experiment [3], B6 showed a dissociation constant (Kd) of 0.038 nM, a koff of 9.1e-05 s⁻¹ and a kon of 2.4e+06 M⁻¹ s⁻¹.

B7: H15L61 (antibody, human IgG1, kappa, V domains shown)
VH: QVQLVQSGAEVKKPGASVKVSCKANGYTFTDKWMMWVRQAPGQGLEWMGRITPSSGFAMYNEKFKNRVTMTRDTSTSTVYMELSSLRSEDTAVYYCARGGSSYDYFDYWGQGTTVTVSS
VL: DIVLTQSPASLAVSPGQRATITCRASESVSIHGTHLMHWYQQKPGQPPKLLIYAASNLESGVPARFSGSGSGTDFTLTINPVEAEDTANYYCQQSFEDPLTFGQGTKLEIKR
notes: also called 24D5 H15 and 24D5 L61
With B7, in experiment [3], the Kd turned out to be 0.0325 nM, the koff turned out to be 7.88e-05 s⁻¹ and the kon was determined as 2.43e+06 M⁻¹ s⁻¹.

B8: H13L61 (antibody, human IgG1, kappa)
heavy: not shown
light: DIVLTQSPASLAVSPGQRATITCRASESVSIHGTHLMHWYQQKPGQPPKLLIYAASNLESGVPARFSGSGSGTDFTLTINPVEAEDTANYYCQQSFEDPLTFGQGTKLEIKRTVAAPSVFIFPPSDEQLKSGTASVVCLLNNFYPREAKVQWKVDNALQSGNSQESVTEQDSKDSTYSLSSTLTLSKADYEKHKVYACEVTHQGLSSPVTKSFNRGEC
notes: also called 24D5 H13 and 24D5 L61
In experiment [3], B8 came in with a dissociation constant Kd of 0.0261 nM, a koff of 6.66e-05 s⁻¹ and a kon of 2.55e+06 M⁻¹ s⁻¹.

B9: H21L69 (antibody, human IgG1, kappa, V domains shown)
VH: QVQLVQSGAEVKKPGASVKVSCKASGYTFTDKWMMWVRQAPGQGLEWMGRITPSSGFAMYNEKFKNRVTMTRDTSTSTVYMELSSLRSEDTAVYYCARGGSSYDYFDYWGQGTTVTVSS
VL: DIVLTQSPASLAVSPGQRATITCRASESVSIHGTHLMHWYQQKPGQPPKLLIYVASNVYSGVPARFSGSGSGTDFTLTINPVEAEDTANYYCQQSFEDPLTFGQGTKLEIKR
notes: also called 24D5 H21 and 24D5 L69
In experiment [1], B9 gave a Kd of 0.0563 nM, a koff of 0.000129 s⁻¹ and a kon of 2.29e+06 M⁻¹ s⁻¹. Moreover, in experiment [2], the Kd came out at 0.0526 nM, the koff was 0.000119 s⁻¹ and the kon was determined as 2.27e+06 M⁻¹ s⁻¹.

B10: H16L61 (antibody, human IgG1, kappa)
heavy: not shown
light: DIVLTQSPASLAVSPGQRATITCRASESVSIHGTHLMHWYQQKPGQPPKLLIYAASNLESGVPARFSGSGSGTDFTLTINPVEAEDTANYYCQQSFEDPLTFGQGTKLEIKRTVAAPSVFIFPPSDEQLKSGTASVVCLLNNFYPREAKVQWKVDNALQSGNSQESVTEQDSKDSTYSLSSTLTLSKADYEKHKVYACEVTHQGLSSPVTKSFNRGEC
notes: also called 24D5 H16 and 24D5 L61
In experiment [3], B10 gave an equilibrium dissociation constant (Kd) of 0.0254 nM, a koff of 6.43e-05 s⁻¹ and a kon of 2.53e+06 M⁻¹ s⁻¹.

B11: HRP00052-IgG1 (antibody)
heavy: not shown
light: DIVLTQSPASLAVSPGQRATITCRASESVSIHGTHLMHWYQQKPGQPPKLLIYAASNLESGVPARFSGSGSGTDFTLTINPVEAEDTANYYCQQSFEDPLTFGQGTKLEIKRTVAAPSVFIFPPSDEQLKSGTASVVCLLNNFYPREAKVQWKVDNALQSGNSQESVTEQDSKDSTYSLSSTLTLSKADYEKHKVYACEVTHQGLSSPVTKSFNRGEC
In the case of B11, the IC50 in experiment [4] was determined as 0.338 ng/mL; in experiment [5], 1.65 ng/mL.

B12: H7L11 (antibody, human IgG1, kappa, V domains shown)
VH: QVQLQESGPGLVKPSQTLSLTCTVSGGSISNDYWTWIRQHPGKGLEYIGMISVAGSTYHTPSLKGRVTISRDTSKNQFSLKLSSVTAADTAVYYCARSGGWLAPFDYWGRGTLVTVSS
VL: DIVMTQSPDSLAVSLGERATINCKSSQSLFYHSNQKHSLAWYQQKPGQPPKLLIYGASTRESGVPDRFSGSGSGTDFTLTISSLQAEDVAVYYCQQYYGYPYTFGGGTKVEIKR
notes: also called 9-2 H7 and 9-2 L11
As to B12, in experiment [3], the affinity, expressed as Kd, was 1.39 nM; the koff came to 0.000389 s⁻¹; the kon stood at 281000 M⁻¹ s⁻¹. In experiment [6], this molecule had a Kd of 135 nM, a koff of 0.0182 s⁻¹ and a kon of 135000 M⁻¹ s⁻¹.
